From patent publication EP1260521B1 come the findings set out here.

The target in assay [1] is FCEH-bound IgE (human IgE loaded on FcERI alpha) (human) (UniProt P01854). Kind of assay: cell-based or functional assay.
The target in another assay is human IgE (human) (UniProt P01854). In words: 50% inhibition assay of IgE binding to FCEH.
For assay [2], the target named is membrane IgE on U266 B1 cells (human) (UniProt P01854). In words: FACS on U266 B1 cells.

A value given as a limit tells only on which side of the number the result lay.

B1: MaE 11 (antibody, from another filing, mouse IgG1, V domains shown)
VH: DVQLQESGPGLVKPSQSLSLACSVTGYSITSGYSWNWIRQFPGNKLEWMGSITYDGSSNYNPSLKNRISVTRDTSQNQFFLKLNSATAEDTATYYCARGSHYFGHWHFAVWGAGTTVTVSS
VL: DIVLTQSPASLAVSLGQRATISCKASQSVDYDGDSYMNWYQQKPGQPPILLIYAASYLGSEIPARFSGSGSGTDFTLNIHPVEEEDAATFYCQQSHEDPYTFGAGTKLEIK
What is called IC50 is the point on the concentration scale where inhibition reaches its midpoint. One may read the EC50 as the concentration needed to bring the measured effect to its halfway point. Consider B1, for which the PBL Histamine Release (EC50) in assay [1] was above 100 µg/mL. In the assay with human IgE (human), this molecule came in with an IC50 of 0.449 µg/mL, a Var. X / IgL1H1 of 0.06 and a Var. X / MaE11 of 1. The concentration giving a half-maximal response (EC50) in assay [2] stood at 0.15 µg/mL.

B2: MaE 15 (antibody, from another filing, mouse IgG1, V domains shown)
VH: DVQHQESEPDLVKPSQSLSLTCTVTGYSITSGYNRHWIRQFPGNKLEWMGYIHYSGSTNYNPSLKRRISITRDTSKNQFFLQLNSVTTEDTATYYCARGSIYYYGSRYRYFDVWGAGTTVTVSS
VL: DIQLTQSPASLAVSLGQRATISCKASQSVDYDGDSYMNWYQQKPGQPPKLLIYAASNLESGIPARFSGSGSGTDFTLNIHPVEEEDAATYYCQQSNEDPFTFGAGT
For the molecule B2, the PBL Histamine Release (EC50) in assay [1] is above 100 µg/mL. Moreover, the EC50 in assay [2] came to 6 µg/mL.

B3: MaE 13 (antibody, from another filing, mouse IgG1, V domains shown)
VH: DVQLQESGPGLVKPSQSLSLTCTVTGYTITSDNAWNWIRQFPGNKLEWMGYINHSGTTSYNPSLKSRISITRDTSKNQFFLQLNSVTTEDTATYYCAWVVAYAMDYWGQGTSVTVSS
VL: DIVMTQSQKFMSTSVGDRVSVTCKASQNVSSNVAWYQQKPGQSPKALIYSASYRYSGVPDRFTGSGSGTDFTLTISNVQSEDLAEYFCQQYYTYPLYTFGGGTKLEIKR
In turn, B3 registered a PBL Histamine Release (EC50) in assay [1] above 10 µg/mL. Also, in assay [2], the EC50 came out at 1 µg/mL.
